Results on seven molecules are retold here after US20110189183A1.

A word on the EC50: it is the concentration needed to bring the measured effect to its halfway point. A high value points to a need for much substance.

Numbering of substitutions follows the chain as printed.

Assay [1] has as its target Candida albicans (Cat. No. 10231, ATCC) whole cells (Candida albicans). In words: colorimetric ELISA on C. albicans cells, [50% Max]. (In general: In an ELISA, binding on a coated surface is turned into a signal by an enzyme label.)
Assay [2] has the same target. In words: colorimetric ELISA on C. albicans cells.
The target in assay [3] is Candida krusei clinical isolate, whole cells (Candida krusei). In words: FACS, IgG on fixed cells.
Assay [4] concerns the target Candida albicans (Cat. No. 10231, ATCC) whole cells (Candida albicans). In words: FACS, IgG on fixed cells.
Assay [5] shares this target. The experiment in a line: FACS, IgG on fixed C. albicans cells, concentration at 50% maximum binding.
Assay [6] concerns the target Candida tropicalis clinical isolate, whole cells (Candida tropicalis). In words: FACS, IgG on fixed cells.
In assay [7] the target is Candida albicans (Cat. No. 10231, ATCC) whole cells (Candida albicans). In words: FACS, IgG on fixed C. albicans cells; end tied to 1F8 by Table 23. For orientation: A flow cytometer gives signals particle by particle.
The target in assay [8] is Candida glabrata clinical isolate, whole cells (Candida glabrata). The experiment in a line: FACS, IgG on fixed cells.
The target in assay [9] is Candida albicans (Cat. No. 10231, ATCC) whole cells (Candida albicans). The experiment in a line: FACS, IgG on fixed C. albicans cells; end tied to 1H12 by Table 23.
The target is the same in assay [10]. The experiment in a line: luminescent ELISA on C. albicans cells.

B1: 2G12 Polymun (Cat. No. AB002, Polymun Scientific) (antibody, V domains shown)
VH: EVQLVESGGGLVKAGGSLILSCGVSNFRISAHTMNWVRRVPGGGLEWVASISTSSTYRDYADAVKGRFTVSRDDLEDFVYLQMHKMRVEDTAIYYCARKGSDRLSDNDPFDAWGPGTVVTVSP
VL: DVVMTQSPSTLSASVGDTITITCRASQSIETWLAWYQQKPGKAPKLLIYKASTLKTGVPSRFSGSGSGTEFTLTISGLQFDDFATYHCQHYAGYSATFGQGTRVEIKR
For B1, the figures for the EC50 in assay [1], in [2] and in [5] were 76.3 nM, 500 nM and 500 nM, respectively. Moreover, the affinity is 1000 nM in assay [3] and 500 nM in assay [4].

B2: P4H12 IgG (antibody, V domains shown)
VH: B1 VH
VL: GVVMTQSPSTLSASVGDTITITCRASQSIETWLAWYQQKPGKAPKLLIYKASTLKTGVPSRFSGSGSGTEFTLTISGLQFDDFATYHCQHYTAHRGATFGQGTRVEIKR
Molecule B2 showed an affinity in [6] of 21 nM.

B3: 1F8 IgG (antibody, V domains shown)
VH: B1 VH
VL: B1 VL with D1G, A92L, G93P, Y94F, S95N
On to B3, for which the fold increased binding affinity against wildtype 2G12 in assay [7] came out at 10 fold. Also, the EC50 in assay [1] stood at 0.9 nM; in assay [5] it was 15.1 nM.

B4: A5G10 IgG (antibody, V domains shown)
VH: B1 VH
VL: B2 VL with T92R, A93P, R95T
As to B4, the affinity in [8] was 72 nM; in [3], 50 nM; in assay [4] it was 50 nM.

B5: 1H12 IgG (antibody, V domains shown)
VH: B1 VH
VL: B1 VL with D1G, A92M, G93P, S95R, T97S
For the molecule B5, the EC50 in assay [1] came to 0.4 nM; in assay [2], 0.82 nM; in assay [5] it was 5.2 nM; in assay [10] it was 6.1 nM. Besides, the fold increased binding affinity against wildtype 2G12 in assay [9] is 30 fold. The affinity in assay [8] turned out to be 12 nM; in [3] it was 17 nM; in [6], 23 nM; in assay [4], 10 nM.

B6: 2G12 IgG (wildtype, made in house) (antibody, V domains shown)
VH: B1 VH
VL: B1 VL
Turning to B6, the EC50 was 9.7 nM in [1] and 150 nM in assay [5]. This molecule also gave a fold higher affinity than 2G12 Polymun in assay [2] of 8 fold.

B7: P1F9 IgG (antibody, V domains shown)
VH: B1 VH
VL: B2 VL with T92R, R95T
As to B7, the figures for the EC50 in [2] and in assay [10] were 3.2 nM and 19 nM, respectively. Further, the affinity worked out at 102 nM in assay [8], 27 nM in assay [3], 51 nM in assay [6] and 23 nM in assay [4].
